Sequences and labels used below:
B2: Knob F241S/F243R (knob Fc with F241S/F243R mutations) (other, name in EU numbering)
chain: DKTHTSPPSPAPELLGGPSVSLRPPKPKDTLMISRTPEVTCVVVDVSHEDPEVKFNWYVDGVEVHNAKTKPREEQYNSTYRVVSVLTVLHQDWLNGKEYKCKVSNKALPAPIEKTISKAKGQPREPQVYTLPPSREEMTKNQVSLWCLVKGFYPSDIAVEWESNGQPENNYKTTPPVLDSDGSFFLYSKLTVDKSRWQQGNVFSCSVMHEALHNHYTQKSLSLSPGK
notes: Positions are EU numbers, not positions on the entry; also called F241S/F243R mutant knob

The target in test [1] is B2. Briefly: SPR (BioRad ProteOn), ligand hole wild-type immobilized on NHS activated sensor, analyte knob F241S/F243R 6.25-200 nM.
The target of test [2] is T1, hole F241S/F243R (human, UniProt P0DOX5 223-449 = IgG part, F241S; F243R).
T1 construct: SPR ligand named only 'hole F241S/F243R'; Positions are EU numbers
Nature of the test: SPR (BioRad ProteOn), ligand hole F241S/F243R immobilized on NHS activated sensor, analyte knob F241S/F243R 6.25-200 nM.

In patent EP2670776B1 (F. Hoffmann-La Roche AG, dated 2018) one finds Kd data, which are given here for 2 molecules.

B1: hole Fc, wild-type hole (single Fc chain, hinge cysteines mutated to serine) (other)
chain: DKTHTSPPSPAPELLGGPSVFLFPPKPKDTLMISRTPEVTCVVVDVSHEDPEVKFNWYVDGVEVHNAKTKPREEQYNSTYRVVSVLTVLHQDWLNGKEYKCKVSNKALPAPIEKTISKAKGQPREPQVYTLPPSREEMTKNQVSLSCAVKGFYPSDIAVEWESNGQPENNYKTTPPVLDSDGSFFLVSKLTVDKSRWQQGNVFSCSVMHEALHNHYTQKSLSLSPGK
notes: IgG1 Fc with T366S, L368A, Y407V only, made in E. coli in the same manner as the knob/knob Fc; also called hole wild-type; hole/hole homodimer
Usually Kd stands for the concentration at which binding is half-saturated. A low value points to tighter binding. On to B1, for which, in test [1], the dissociation constant (Kd) is less than 10 nM.

B2: the equilibrium dissociation constant (Kd) in test [2] was less than 10 nM.
